Test results reported in patent US20070258982A1 (Pfizer, published 2007).
Like-named read-outs stand apart in the source and are kept apart here.

T1: IL-26 (human, UniProt Q9NPH9)
T1 construct: also called human IL-26
T1 sequence (cytokine, looked up): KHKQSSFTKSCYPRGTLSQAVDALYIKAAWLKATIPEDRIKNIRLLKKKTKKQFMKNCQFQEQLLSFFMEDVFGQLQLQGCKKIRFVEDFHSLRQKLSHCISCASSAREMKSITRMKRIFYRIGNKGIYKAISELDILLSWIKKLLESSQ

T2: human IL-22 (human, UniProt Q9GZX6 34-179)
T2 sequence: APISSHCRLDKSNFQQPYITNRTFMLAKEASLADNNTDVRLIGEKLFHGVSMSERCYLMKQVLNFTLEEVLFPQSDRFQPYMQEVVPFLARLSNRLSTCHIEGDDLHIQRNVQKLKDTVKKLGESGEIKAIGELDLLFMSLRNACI

T3: murine IL-22 (murine, UniProt Q9JJY9 34-179)
T3 sequence: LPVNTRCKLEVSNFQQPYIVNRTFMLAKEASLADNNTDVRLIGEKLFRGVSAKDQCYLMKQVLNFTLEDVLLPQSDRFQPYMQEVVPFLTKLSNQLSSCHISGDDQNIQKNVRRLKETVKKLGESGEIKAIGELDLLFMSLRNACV

T4: rat IL-22 (rat, UniProt G3V6X6 34-178)
T4 sequence: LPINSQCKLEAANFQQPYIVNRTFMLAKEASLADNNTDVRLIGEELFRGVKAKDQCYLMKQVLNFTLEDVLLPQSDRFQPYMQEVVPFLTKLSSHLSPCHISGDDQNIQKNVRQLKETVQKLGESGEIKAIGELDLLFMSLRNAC


Columns and labels:
BSA [1] = target: T5, BSA (bovine, UniProt P02769); assay: ELISA: plate coated with antigen, IgG added at 1 µg/ml, HRP goat anti-human IgG, A450
T5 construct: also called bovine serum albumin

IL-26 = target: T1, IL-26; assay: ELISA: plate coated with 1 µg/ml antigen, IgG added at 1 µg/ml, HRP goat anti-human IgG, A450
Protocol: Cross species reactivity of germlined and non-germlined optimized antibodies were determined as follows: ELISA plates (Costar, Cat. #3590) were coated overnight with 1 μg/ml of rat, mouse, or human IL-22 or human IL-26 in PBS buffer. Plates were washed with PBST buffer (0.05% Tween20 in PBS) 3 times, then blocked with 1% BSA (Sigma A8918)/PBST for 1 hr at RT. Antibodies were added at 1 μg/ml, incubated 1 hr at 25° C. […] The plates were incubated for 1 hour at 25° C., then washed with PBST, and developed with TMB (KPL, Cat. #50-76-04). Reaction was stopped with 0.18 M H₂SO₄ Plates were read at OD 450 nm.

human IL-22 [2] = target: T2, human IL-22; assay: cell-based or functional assay
human IL-22 [3] = target: T2, human IL-22; assay: cell-based or functional assay; remark: listed apart in the source
murine IL-22 [4] = target: T3, murine IL-22; assay: cell-based or functional assay
rat IL-22 [5] = target: T4, rat IL-22; assay: cell-based or functional assay
monkey IL-22 [6] = target: monkey IL-22 (monkey); assay: cell-based or functional assay
human IL-22 [7] = target: T2, human IL-22; assay: cell-based or functional assay; remark: listed apart in the source
murine IL-22 [8] = target: T3, murine IL-22; assay: cell-based or functional assay; remark: listed apart in the source
rat IL-22 [9] = target: T4, rat IL-22; assay: cell-based or functional assay; remark: listed apart in the source
monkey IL-22 [10] = target: monkey IL-22 (monkey); assay: cell-based or functional assay; remark: listed apart in the source
BSA [11] = target: T5, BSA; assay: ELISA: plate coated with antigen, IgG added at 1 µg/ml, HRP goat anti-human IgG, A450; remark: listed apart in the source

T5 sequence (P02769 25-607 limits assumed): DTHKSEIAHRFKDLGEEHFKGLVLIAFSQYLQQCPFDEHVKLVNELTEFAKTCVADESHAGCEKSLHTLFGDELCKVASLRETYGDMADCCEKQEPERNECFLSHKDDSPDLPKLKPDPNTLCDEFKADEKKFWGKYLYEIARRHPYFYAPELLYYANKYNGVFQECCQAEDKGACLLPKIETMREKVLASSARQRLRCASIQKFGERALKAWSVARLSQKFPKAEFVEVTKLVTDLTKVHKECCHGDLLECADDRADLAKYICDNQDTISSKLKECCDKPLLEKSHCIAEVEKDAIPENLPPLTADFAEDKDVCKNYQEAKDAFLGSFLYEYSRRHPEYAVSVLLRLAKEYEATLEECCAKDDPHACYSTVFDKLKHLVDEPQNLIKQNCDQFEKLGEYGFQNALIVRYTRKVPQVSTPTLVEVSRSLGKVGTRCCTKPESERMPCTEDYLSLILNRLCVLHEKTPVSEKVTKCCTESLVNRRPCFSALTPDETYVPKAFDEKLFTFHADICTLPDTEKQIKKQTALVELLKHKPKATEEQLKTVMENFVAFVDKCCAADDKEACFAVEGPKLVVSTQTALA

Binder | binding result (BSA [1]) | binding result (IL-26) | IC50 of IgG (pM) in BaF3-IL-22 proliferation assay (human IL-22 [2]) | binding result (BSA [11]) | further results
166B06 IgG (germlined) (antibody, V domains shown) VH: QVQLVQSGAEVKKPGASVKVSCKASGYTFSDYYIHWVRQAPGQGLEWMGWVNPDTGGTRYAQKFQGRVTMTRDMSISTAYMELSRLRSDDTAVYYCARDLTGFDPFDIWGQGTLVTVSS VL: SSVLTQPPSVSVAPGKTARITCGGNNFRNKRVHWYQQKPGQAPVLVIYYDSDRPSGIPERFSGSRSGNTATLTISRVEAGDEADYYCQVWDLFNDNGVFGGGTKLTVLG | no binding (tested: 1 µg/ml) | no binding (tested: 1 µg/ml) |  |  | 
355B06 IgG (germlined) (antibody, V domains shown) VH: QVQLVQSGAEVKKPGASVKVSCKASGYTFTDYYMHWVRQAPGQGLEWVGWINPYTGSAFYAQKFRGRVTMTRDTSISTAYMELSRLRSDDTAVYYCAREPEKFGESSGQLWGRGTLVTVSS VL: QAVLTQPPSVSGAPGQRVTISCTGSSSNIGAGYGVHWYQQLPGTAPKLLIYGDSNRPSGVPDRFSGSKSGTSASLAITGLQAEDEADYYCQSYDSGLSGYVFGGGTQLTVLG | no binding (tested: 1 µg/ml) | no binding (tested: 1 µg/ml) | 92 pM |  | 
356A11 human monoclonal anti-IL-22 antibody (Examples 10, 11, 14, 15) (antibody, V domains shown) VH: QVQLVQSGAEVKKPGASVKVSCKASGYTFTNYYMHWVRQAPGQGLEWVGWINPYTGSAFYAQKFRGRVTMTRDTSISTAYMELSRLRSDDTAVYYCAREPEKFDSDDSDVWGRGTLVTVSS VL: QAVLTQPPSVSGAPGQRVTISCTGSSSNIGAGYGVHWYQQLPGTAPKLLIYGDSNRPSGVPDRFSGSKSGTSASLAITGLQAEDEADYYCQSYDNSLSGYVFGGGTQLTVLG |  |  |  |  | IC50 (pM) in GROa cell based assay (HT29 cells) (human IL-22 [3]): 124 pM; IC50 (pM) in GROa cell based assay (HT29 cells) (murine IL-22 [4]): 144 pM; IC50 (pM) in GROa cell based assay (HT29 cells) (rat IL-22 [5]): 211 pM; IC50 (pM) in GROa cell based assay (HT29 cells) (monkey IL-22 [6]): 89.6 pM; IC50 (pM) in BaF3 cell based assay (human IL-22 [7]): 3.57 pM; IC50 (pM) in BaF3 cell based assay (murine IL-22 [8]): 2.53 pM; IC50 (pM) in BaF3 cell based assay (rat IL-22 [9]): 10.7 pM; IC50 (pM) in BaF3 cell based assay (monkey IL-22 [10]): 2.58 pM
355E04 IgG (germlined) (antibody, V domains shown) VH: QVQLVQSGAEVKKPGASVKVSCKASGYTFTHYYMHWVRQAPGQGLEWVGWINPYTGGAFYAQKFQGRVTMTRDTSISTAYMELSRLRSDDTAVYYCAREPEKFDSPNAEIWGRGTLVTVSS VL: QAVLTQPPSVSGAPGQRVTISCTGSSSNIGAGYGVHWYQQLPGTAPKLLIYGNSNRPSGVPDRFSGSKSGTSASLAITGLQAEDEADYYCQSYDSSLSGYVFGGGTQLTVLG | no binding (tested: 1 µg/ml) | no binding (tested: 1 µg/ml) | 100 pM |  | 
087B03 IgG (germlined) (antibody, V domains shown) VH: EVQLVESGGGVVRPGGSLRLSCAASGFTFDDYGMNWVRQAPGKGLEWVSGVNWNGGTRDYAASVKGRFTISRDNAKNSLYLQMNSLRAEDTALYHCARGWYSGAAWNMGYWGRGTLVTVSS VL: QAALTQPASVSGSPGQSITISCTGASGDVGAYNFVSWYQQHPGKAPKLIIYDVNKRPSGVSNRFSGSKSGNTASLTISGLQAEDEADYYCSSYTSTFSVVFGGGTKLTVLG | no binding (tested: 1 µg/ml) | no binding (tested: 1 µg/ml) |  |  | 

Now from value to binder, other results behind:

binding result (BSA [1]) | binding result (IL-26) | IC50 of IgG (pM) in BaF3-IL-22 proliferation assay (human IL-22 [2]) | binding result (BSA [11]) | Binder | further results
no binding (tested: 1 µg/ml) | no binding (tested: 1 µg/ml) |  |  | 166G05 IgG (germlined) (antibody, V domains shown) VH: QVQLVQSGAEVKKPGASVKVSCKASGYTFSDYYIHWVRQAPGQGLEWMGWVNPDTGGTRYAQKFQGRVTMTRDMSISTAYMELSRLRSDDTAVYYCARDLTGFDPFDIWGQGTLVTVSS VL: SSVLTQPPSVSVAPGKTARITCGGNNFRNKRVHWYQQKPGQAPVLVIYYDSDRPSGIPERFSGSRSGNTATLTISRVEAGDEADYYCQVWDFLTDSGSFGGGTKLTVLG | 
no binding (tested: 1 µg/ml) | no binding (tested: 1 µg/ml) | 79 pM |  | 354A08 IgG (germlined) (antibody, V domains shown, isotype of this preparation not restated) VH: QVQLVQSGAEVKKPGASVKVSCKASGYTFTDYYMHWVRQAPGQGLEWVGWINPYTGGAFYAQKFRGRVTMTRDTSISTAYMELSRLRSDDTAVYYCAREPERFGDSTGQVWGRGTLVTVSS VL: QAVLTQPPSVSGAPGQRVTISCTGSSSNIGAGYGVHWYQQLPGTAPKLLIYGNSNRPSGVPDRFSGSKSGTSASLAITGLQAEDEADYYCYHWDKEQSGYVFGGGTQLTVLG | 
no binding (tested: 1 µg/ml) | no binding (tested: 1 µg/ml) | 53 pM |  | 356A11 IgG (germlined; Tables 6 and 9) (antibody, V domains shown) VH: QVQLVQSGAEVKKPGASVKVSCKASGYTFTNYYMHWVRQAPGQGLEWVGWINPYTGSAFYAQKFRGRVTMTRDTSISTAYMELSRLRSDDTAVYYCAREPEKFDSDDSDVWGRGTLVTVSS VL: QAVLTQPPSVSGAPGQRVTISCTGSSSNIGAGYGVHWYQQLPGTAPKLLIYGDSNRPSGVPDRFSGSKSGTSASLAITGLQAEDEADYYCQSYDNSLSGYVFGGGTQLTVLG | 
 | no binding (tested: 1 µg/ml) | 100 pM | no binding (tested: 1 µg/ml) | 375G06 IgG (non-germlined) (antibody, V domains shown, IgG) VH: EVQLVQSGAEVKKPGASVKVSCQASGYTFSDYYIHWVRQTPGQGFEWMGWVNPDTGGTRYAQKFQGWVTMTRDMSNTTAYMELPRLRDDDTAVYYCARDLTGYDYYDRWGQGTLVTVSS VL: QSVLTQPPSMSVAPGKTATITCGGNNFRNKRVHWYQQRPGQAPVLVIYYDSDRPSGIPERFSGSRSGNTATLTISRVEAGDEADFYCQVWDFLADEAMFGGGTKLTVL | 
 | no binding (tested: 1 µg/ml) | 119 pM | no binding (tested: 1 µg/ml) | 376B10 IgG (non-germlined) (antibody, V domains shown, IgG) VH: EVQLVQSGAEVKKPGASVKVSCQASGYTFSDYYIHWVRQTPGQGFEWMGWVNPDTGGTRYAQKFQGWVTMTRDMSNTTAYMELPGLRDDDTAVYYCARDLTGYDQYTAWGQGTLVTVSS VL: QSVLTQPPSVSVAPGKTATITCGGNNFRNKRVHWYQQRPGQAPVLVIYYDSDRPSGIPERFSGSRSGNTATLTISRVEAGDEADFYCSTFDPFTDRPLFGGGTKLTVLG | 
 |  | 112 pM | no binding (tested: 1 µg/ml) | 062G05 IgG (non-germlined) (antibody, V domains shown, IgG) VH: QVQLVESGAEVKKPGASVKVSCKASGYTFTSYGISWVRQAPGQGLEWMGWISAYTGNTNYAQKFQGRVTMTTDTSTSTAYMELRSLRSDDTAVYYCARDRGYYDAFDIWGQGTLVTVSS VL: DIQMTQSPSTLSASIGDRVTITCRASEGIYHWLAWYQQKPGKAPKLLIYKASSLASGAPSRFSGSGFGTDFTLTISSLQPDDFATYYCQQMGEWKAAFGGGTKLEIKR | 
 | no binding (tested: 1 µg/ml) | 126 pM | no binding (tested: 1 µg/ml) | 367D04 IgG (non-germlined) (antibody, V domains shown, IgG) VH: EVQLVESGGGVVRPGGSLRLSCAASGFTFDDYGMNWVRQAPGKGLEWVSGVNWNGGTRDYAASVKGRFTISRDNAKNSLYLQMNSLRAEDTALYYCARGWYSGSPWSLGHWGRGTLVTVSS VL: QAVLTQPSSVSGSPGQSVTISCTGASGDVGAYNFVSWYQQHPGKTPKLIIYDVNKRPSGVSNRFSGSKSGNTASLTISRLQAEDESDYYCSSYTSRYTTEFGGGTKVTVLG | 
 | no binding (tested: 1 µg/ml) | 127 pM | no binding (tested: 1 µg/ml) | 368D04 IgG (non-germlined) (antibody, V domains shown) VH: EVQLVESGGGVVRPGGSLRLSCAASGFTFDDYGMNWVRQAPGKGLEWVSGVNWNGGTRDYAASVKGRFTISRDNAKNSLYLQMNSLRAEDTALYYCARGWYSGAAWNMGYWGRGTLVTVSS VL: QAVLTQPSSVSGSPGQSITISCTGASGDVGAYNFVSWYQQHPGKTPKLIIYDVNKRPSGVSNRFSGSKSGNTASLTISGLQAEDESDYYCASLVSDFSVVFGGGTKVTVLG | 
